Laboratory results reported in PMC2919415, “Integrating Ion Mobility Mass Spectrometry with Molecular Modelling to Determine the Architecture of Multiprotein Complexes” (PLoS ONE, 2010).
Where “and” joins values, the source holds several entries; their conditions need not be identical. Identical values can stand only once.

Tests used:
[1] = molecular target: T1, δ′ subunit of the γ complex (clamp loader), E. coli (E. coli, UniProt P28631 1-334); test: native MS; nano-electrospray ion mobility-MS (Synapt HDMS) of γδ′ subcomplexes; γ and δ′ mixed 3:2, then exchanged into 0.1 M NH4OAc; details: both partners purified
T1 construct: δ′ subunit of the E. coli clamp loader (γ complex); source: overexpressed in E. coli and purified as described [45-48]

[2] = molecular target: the molecule itself; test: as above
[3] = molecular target: the molecule itself; test: native MS; nano-electrospray ion mobility-MS (Synapt HDMS) of γ alone; 0.1 M NH4OAc pH 6.9

stoichiometry N [1]: 2 γ per δ′ and 3 γ per δ′
B1: γ subunit of the γ complex (clamp loader), E. coli (natural protein, UniProt P06710-2 1-431, looked up)
chain: MSYQVLARKWRPQTFADVVGQEHVLTALANGLSLGRIHHAYLFSGTRGVGKTSIARLLAKGLNCETGITATPCGVCDNCREIEQGRFVDLIEIDAASRTKVEDTRDLLDNVQYAPARGRFKVYLIDEVHMLSRHSFNALLKTLEEPPEHVKFLLATTDPQKLPVTILSRCLQFHLKALDVEQIRHQLEHILNEEHIAHEPRALQLLARAAEGSLRDALSLTDQAIASGDGQVSTQAVSAMLGTLDDDQALSLVEAMVEANGERVMALINEAAARGIEWEALLVEMLGLLHRIAMVQLSPAALGNDMAAIELRMRELARTIPPTDIQLYYQTLLIGRKELPYAPDRRMGVEMTLLRALAFHPRMPLPEPEVPRQSFAPVAPTAVMTPTQVPPQPQSAPQQAPTVPLPETTSQVLAARQQLQRVQGATKAKKE
notes: γ subunit of the E. coli clamp loader (γ complex); the legend speaks of the full length γ subunit against the truncated γ of the crystal structure; also called γ2; γ3; source: overexpressed in E. coli and purified as described [45-48]
stoichiometry N [2]: 2 and 3
stoichiometry N [3]: 4
